Reference: the supplement of paper PMC10567573

B1: GAGE1 (parent)
chain: QPPEMIGPMRPEQFSDEVEPATPE

Variants of: B1
Assay: protein stability index of a GFP-peptide fusion (GPS, HEK-293T) (PSI 1-6); higher = more stable
Settings: c terminus: a fixed tail appended
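Also: lentivirally expressed fusions sorted by FACS into six bins by GFP to DsRed ratio, PSI derived from sequencing read proportions per bin multiplied by bin number.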

Protein stability index: each site, then its substitutions
S15: A 4.71; V 4.73; L 4.79; E 5.49; D 4.57; C 5.31; N 5.32; G 4.48; K 5.72; R 5.37; Y 4.59; W 4.8; P 4.67; M 4.22; T 5.27; I 5.08; H 4.75; F 3.19
P3: S 5.26; T 5.57; N 5.4; Q 5.51; V 4.83; Y 5.32; M 5.76; I 4.9; K 5.64; H 5.52; R 5.71; W 5.23; L 4.76; G 5.17
P11: D 5.69; G 5.65; I 4.87; C 5.5; Y 5.43; H 5.82; K 5.63; R 5.55; S 5.6; Q 5.34; M 4.9; L 5.37; T 5.61; N 5.44; E 5.69; W 5.39; F 5.5; A 5.35; V 5.7
R10: Y 5.24; P 5.78; S 5.56; V 4.98; L 4.37; W 5.34; F 5.47; G 4.82; K 4.93; N 5.28; M 5.12; A 5.17; T 4.38; C 5.51; H 5.2; I 5.24; E 5; Q 4.4; D 3.42
G7: M 5.55; R 5.68; A 5.38; T 5.46; H 5.48; D 5.22; E 5.69; F 5.83; C 5.63; P 5.56; V 5.68; K 5.54; Q 5.69; S 5.68; W 5.73; I 5.14; N 5.91; Y 5.76; L 5.44
D16: C 4.96; G 4.98; R 5.33; F 5.74; S 5.31; W 5.24; N 5.38; K 5.51; I 5.39; M 5.32; Y 5.43; H 5.57; Q 5.6; T 5.46; E 3.25; A 5.69; V 5.54; P 5.66; L 5.32
Q13: V 5.62; Y 5.5; F 5.02; K 5.34; D 4.11; E 4.65; R 5.58; C 5.59; S 5.46; N 5.33; M 4.96; T 5.84; I 5.6; L 5.64; W 5.36; G 5.78; H 5.45; P 5.91; A 5.12
E4: C 5.58; N 5.48; W 5.61; L 5.54; K 5.46; H 5.6; F 5.62; T 5.56; D 5.65; I 5.52; G 5.72; M 5.65; S 5.2; Y 5.75; P 5.56; R 5.74; Q 5.68; A 5.75; V 5.41
F14: R 5.72; Y 4.75; E 5.49; S 5.97; N 5.87; L 5.61; V 5.48; W 5.65; T 5.81; C 5.29; P 5.84; H 5.46; K 4.13; M 5.57; I 5.28; Q 5.56; D 5.8; G 5.68; A 5.4
P20: F 4.98; D 5.25; H 5.46; Y 5.13; K 4.79; A 4.44; C 4.84; G 5.36; S 5.18; E 4.92; L 5.27; Q 5.21; R 5; I 4.96; M 4.65; N 4.75; W 3.7; T 4.91
M9: Q 5.49; G 5.5; C 5.7; Y 5.5; D 5.82; F 5.54; E 5.62; T 5.68; H 5.9; N 4.68; S 5.72; W 5.9; P 5.57; A 5.28; V 5.97; K 5.81; I 5.13; L 5.31; R 5.86
V18: S 5.44; T 4.79; M 4.75; D 4.79; W 5.04; L 4.59; E 4.96; G 4.72; F 5.13; K 5.12; I 4.91; Y 4.22; A 5.25; C 4.78; P 4.85; N 5.32; R 4.85; Q 5.35; H 5.26
I6: Y 5.65; M 5.59; F 5.89; P 5.52; G 5.45; S 6; N 5.72; R 5.86; L 5.64; W 5.83; C 5.91; H 5.72; E 5.81; V 5.79; Q 5.32; D 5.79; A 5.59; T 5.72; K 5.78
E17: M 5.16; C 4.91; A 5.08; S 5.44; H 5.56; N 5.01; G 5.16; Y 4.05; D 4.85; V 4.96; W 4.85; Q 5.42; L 5.04; K 5.12; F 4.86; P 4.73; I 4.89; R 5.34; T 5.08
E12: A 5.33; K 5.15; R 5.71; M 5.15; D 4.57; V 5.83; T 5.58; W 4.88; I 5.69; S 5.5; F 5.87; L 5.8; H 5.21; Q 5.57; N 5.46; Y 5.51; C 5.27; P 5.73; G 5.01
E19: F 4.95; L 4.04; Y 4.65; G 4.86; A 5.03; S 5.18; C 4.62; K 4.42; Q 5.33; M 4.83; V 4.09; T 5.17; D 5.25; W 4.75; I 5.05; H 5.04; N 5.06; R 3.98; P 4.43
M5: D 5.02; G 5.45; H 5.5; E 5.15; Q 5.25; K 5.27; C 4.73; R 5.81; W 5.54; Y 4.99; L 4.55; T 5.19; I 4.57; A 5.68; N 5; S 3.55; P 5.9; V 4.27; F 5.32
P8: S 5.54; K 5.46; E 5.86; M 4.75; V 5.67; L 5.52; I 5.09; T 5.62; G 5.45; N 5.91; Y 4.92; C 5.48; Q 5.76; F 4.9; R 5.24; D 5.1; H 5.47; A 5.5
